B1: VH:VL chains; a variant is named by its letters at X, in order (parent)
chain 1: QVQLVQSGAEVKKPGASVKVSCKASGYTFTDYXMHWVRQAPGQGLEWMGXVNPNXXXTTYNQKFEGRVTMTTDTSTSTAYMELRSLRSDDTAVYYCARXNXLDXWGQGTTVTVSS
chain 2: DIQMTQSPSSLSASVGDRVTITCSVSSSVSSIYLHWYQQKPGKAPKLLIYSTSNLASGVPSRFSGSGSGTDFTLTISSLQPEDFATYYCQVYSGYPLTFGGGTKVEIK

119 variants from the emibetuzumab library of Makowski et al. (2022) can be followed below.

Variants of B1 are the subject of this data set. The data set is described as follows: yeast display scFab, FACS + sequencing. Summed up:
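Heavy-chain CDR mutant scFab yeast surface library, FACS-sorted after labelling with biotinylated ovalbumin (260 μg/mL in PBSB, 3 h, room temperature) or soluble membrane proteins (130 μg/mL, 20 min on ice), plus anti-Myc. Gates collected the top 25% and bottom 10% of binders, and samples from two replicates were deep sequenced. Non-specific binding call: a sequence was positive if found in ≥3 of 4 positive samples (membrane protein and ovalbumin pooled) and no negatives, and negative by the converse rule.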
Consider VTATADWA, for which the non-specific binding call is on record as “no binding”. FRAGGALS: the non-specific binding call is recorded as “binds”. Next, STRKSYAA: “binds”; FKKEGYGD: “binds”. Then YETGAAAA, with “no binding”. Then DGERDYSD, with “binds”; and YKKTGYWV, with “binds”. Consider YRRGDAGF, for which the non-specific binding call was “binds”. On to VTGEDDWV, for which the non-specific binding call was “no binding”.

On to VRTRGSGV, for which the non-specific binding call is recorded as “binds”. On to SKTRGAGV, for which the non-specific binding call is “binds”.

As to AARADDGS, the non-specific binding call is given as “no binding”. Then YRAGSSAD, with “binds”. For YARRGDGA, the non-specific binding call is recorded as “binds”. Next, DAGTGDGV: “no binding”; YRRGAAAA: “binds”; SEARSDGY: “no binding”. Next, YAGGDFAY: “no binding”; VRARGDVS: “no binding”.

With YRGKDASD, the non-specific binding call is “binds”.

On to VTGTGAAD, for which the non-specific binding call is reported as “no binding”. Next, DRAGDAGV: “no binding”; YRRKGSGA: “binds”.

Regarding VAGGGAAV, the non-specific binding call is listed as “no binding”. Next, AGETGFSA: “binds”; YRERDSAD: “binds”. In the case of FKGRGSGV, the non-specific binding call is on record as “binds”.

As for SEARSSAS, the non-specific binding call was “no binding”. Take VAGTGAVV: the non-specific binding call is listed as “no binding”.

Regarding YRRGGALD, the non-specific binding call is “binds”. For SKKGDFWV, the non-specific binding call is “binds”. Next, YRGRGFVD: “binds”; VGGGNDLA chain 1 R87K: “no binding”. Then YRAGASGA, with “binds”; and VKAGDAWS, with “no binding”; and YKGRGVGA, with “binds”. Turning to YKGRGVGY, the non-specific binding call is “binds”. As for YKTGGSGA, the non-specific binding call is on record as “binds”. Next, YRGKGSAA: “binds”; YRGKGSAV: “binds”. Then YRGKGALS, with “binds”; and YRGRGFAD, with “binds”; and YRGKGAAS, with “binds”. As to VKEKGAWY, the non-specific binding call was “binds”. Next, VKEKGDGS: “no binding”; VKGRGSAA: “binds”; VKGRADSF: “no binding”. As to VKRRSSLA, the non-specific binding call is reported as “binds”.

As for YKRGSASV, the non-specific binding call is reported as “binds”. Next, VRAGGAWV: “binds”; VRGTGDWD: “no binding”; VEGGGFSV: “no binding”. Then YRGRGAVF, with “binds”; and YAGETFGA, with “binds”. Next, YRRRGYLV: “binds”; YTGEADAS: “no binding”; YAGRGDVY: “no binding”.

Regarding YRGRGVVD, the non-specific binding call is given as “binds”. Then VRAGDDGA, with “no binding”; and YKGRGSLY, with “binds”; and YRGKDSGS, with “binds”.

Consider VTGTGDWV, for which the non-specific binding call is reported as “no binding”. On to VARGGSVD, for which the non-specific binding call is “no binding”. Take YARGTAVD: the non-specific binding call is “binds”.

For the variant YRTAGAGV, the non-specific binding call is on record as “binds”. Turning to VAGGDDGF, the non-specific binding call is “no binding”. Turning to YRAKGSAD, the non-specific binding call is listed as “binds”.

As for DETGNVWF, the non-specific binding call is recorded as “no binding”. Then VEAGDAAV, with “no binding”; and FRREGSSD, with “binds”. Regarding YAARGAWD, the non-specific binding call is listed as “binds”. Then DTTGSDWY, with “no binding”. For VGRGNVGV, the non-specific binding call was “binds”. As for DKGGSDVV, the non-specific binding call is “no binding”.

On to VKGRADLY, for which the non-specific binding call is listed as “no binding”. Then YTRAGAAA, with “binds”; and FRGRDSWS, with “binds”. As to SEKGGSSA, the non-specific binding call is reported as “no binding”.

As to YTARGSAA, the non-specific binding call was “binds”. YRAKSAVF: the non-specific binding call was “binds”. Then FGAAAVGD, with “binds”.

VKAGGDSD: the non-specific binding call is given as “no binding”.

Take YKAGDSSD: the non-specific binding call is “no binding”.

Turning to YKAGGYSD, the non-specific binding call is given as “binds”.

Regarding YRGAGAVY, the non-specific binding call is given as “binds”. Next, DGEGGDWD: “binds”; VKGKDSGD: “binds”; YTGTSSSA: “no binding”. Regarding YAGGDDGA, the non-specific binding call is reported as “no binding”. Next, YTRGADGV: “no binding”.

As to SAAGSVWY, the non-specific binding call is given as “no binding”. Next, YKGGGAGS: “binds”; FRTGDSVD: “no binding”; SRGRGSVD: “binds”. YRRRGSLA: the non-specific binding call was “binds”. FRGRGSVS: the non-specific binding call is “binds”. Take DAGGADAY: the non-specific binding call is listed as “no binding”. YRRGSSGA: the non-specific binding call is given as “binds”. Then DAKEGDAV, with “no binding”.

YKRGSSSD: the non-specific binding call is on record as “binds”. Turning to DRGGDDGS, the non-specific binding call was “no binding”.

For VRGRSSVV, the non-specific binding call was “no binding”.

With YEGGTSGA, the non-specific binding call is “no binding”. Take FRGKGAGY: the non-specific binding call is “binds”. Regarding YRGESSGF, the non-specific binding call is “binds”. Then VRERGDAA, with “no binding”; and VTTKSDAV, with “no binding”; and SAEEDDVY, with “no binding”. Next, VGGGAAGF: “no binding”; YKGRGYAA: “binds”. For the variant YRGRSSWD, the non-specific binding call is “binds”. Next, DATGGAGD: “no binding”; FRRGDAAV: “binds”. For YRTRDDLY, the non-specific binding call is given as “no binding”. Then FRGKGAAS, with “binds”; and FRGGSSAA, with “binds”. For DEKEGDAA, the non-specific binding call is on record as “no binding”. Then DRAGDDAV, with “no binding”; and YAEESSSA, with “no binding”.
